From PMC8881610 come the findings set out here.

The assay addresses human GLP-1R, wild-type, on cells (human) (UniProt P43220).

Chain of human GLP-1R, wild-type, on cells (human) (P43220 24-463): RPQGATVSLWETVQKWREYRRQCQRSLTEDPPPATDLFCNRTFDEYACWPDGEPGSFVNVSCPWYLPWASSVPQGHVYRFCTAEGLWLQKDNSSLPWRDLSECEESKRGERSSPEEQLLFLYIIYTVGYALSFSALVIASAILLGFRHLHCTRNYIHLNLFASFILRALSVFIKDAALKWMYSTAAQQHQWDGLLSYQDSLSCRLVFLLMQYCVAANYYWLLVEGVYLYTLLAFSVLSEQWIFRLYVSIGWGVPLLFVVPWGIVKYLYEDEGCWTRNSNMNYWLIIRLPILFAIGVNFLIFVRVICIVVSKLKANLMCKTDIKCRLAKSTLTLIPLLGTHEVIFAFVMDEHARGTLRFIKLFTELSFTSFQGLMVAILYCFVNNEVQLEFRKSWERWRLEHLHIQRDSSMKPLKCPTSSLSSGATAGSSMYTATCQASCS

non-acylated tirzepatide (peptide) came in with a cAMP response, EC50, 0.1% BSA of 4.66 pM and an other of 0.9 pM.

For the substance tirzepatide (peptide), the other turned out to be 3.05 pM.
